Paper PMC5577609

Tests used:
[1] = biological target: Halimeda renschii lectin HRL40 (Halimeda renschii); assay: SDS-PAGE, non-reducing and reducing; 12% gel; samples heated at 100 C in 0.2% SDS with or without 2% 2-mercaptoethanol; about 40 kDa non-reduced, 10 kDa reduced
[2] = biological target: influenza virus envelope glycoprotein hemagglutinin (influenza virus (strain not stated for the immobilised hemagglutinin)); assay: SPR; Biacore X100; […], HBS-N (10 mM HEPES, 150 mM NaCl, pH 7.4); […], dissociation 600 s; Langmuir 1:1 fit
[3] = biological target: HRL40-1 (isolectin of Halimeda renschii lectin HRL40) (Halimeda renschii); assay: LC-ESI-MS of the intact and of the reduced, S-pyridylethylated protein; LTQ Orbitrap XL; intact isolectin against the subunit mass derived after reduction with tri-n-butylphosphine and alkylation with 4-vinylpyridine

Row | Substance | stoichiometry N [1] | Ka [2] | Kd [2] | koff [2] | kon [2] | stoichiometry N [3]
1 | Halimeda renschii lectin HRL40 (natural protein) | 4 | 2.71e+10 M⁻¹ | 0.0369 nM | 2.63e-06 s⁻¹ | 71400 M⁻¹ s⁻¹ | –
2 | HRL40-1 (isolectin of Halimeda renschii lectin HRL40) (natural protein) | – | – | – | – | – | 4
